Patent US20250051455A1 (Hoffmann-La Roche, published 2025)
Numbering of substitutions follows the chain as printed.

Legend:
[1] = target: T1, recombinant soluble human HLA-G β2M MHC class I complex, dimer (human); test: competition ELISA, one antibody concentration; competitor coated ILT4-Fc
T1 construct: Non-biotinylated; also called HLA-G Dimer; dimeric HLA-G
Procedure: (§1) The ELISA was set up by coating the Fc tagged ILT2 and ILT4 respectively to Maxisorp microtiter plates. After incubation and washing steps, the respective antibodies were added at a concentration of 100 nM. Soluble His tagged monomeric, dimeric or trimeric HLA-G was added to the wells. After incubation and washing steps, detection of bound receptor was carried out by anti-His-antibody-POD conjugates.
(§2) The above tables summarize the blocking of interaction between rec. HLA-G proteins (monomer and oligomers) to its receptors ILT2 and ILT4 by the described HLAG antibodies at a concentration of 110 nM (*HLAG-0090 was tested at a concentration of 44 nM) as assessed by ELISA. Shown are the % inhibitions of the HLA-G/receptor interaction (for ILT2 and ILT4). The less pronounced ILT4 inhibition depends on the major β2M dependent interaction of this receptor.

[2] = target: T2, recombinant soluble human HLA-G β2M MHC class I complex, trimer (human); test: as above
T2 construct: Non-biotinylated; also called HLA-G Trimer; trimeric HLA-G
Procedure: as §1, §2

[3] = target: T3, recombinant soluble human HLA-G β2M MHC class I complex, monomer (human); test: as above
T3 construct: His tagged; biotinylated where coated on streptavidin plates, non-biotinylated in SPR; also called HLA-G-0003; wt HLA-G (monomer)
Procedure: as §1, §2

[4] = target: T3, recombinant soluble human HLA-G β2M MHC …; test: ELISA, biotinylated wt HLA-G monomer on streptavidin plate
Procedure: Streptavidin coated plates (Nunc, MicroCoat #11974998001) were coated with 25 μl/well biotinylated human wt HLA-G at a concentration of 250 ng/ml and incubated at 4° C. overnight. After washing (3×90 μl/well with PBST-buffer) 25 μl anti-HLA-G samples (1:3 dilution in OSEP buffer) or reference antibody (G233, Thermo/Pierce #MA1-19449, 500 ng/ml) were added and incubated 1 h at RT. After washing (3×90 μl/well with PBST-buffer) 25 μl/well goat-anti-mouse H+L-POD (Biorad #170-6561, 1:2000 in OSEP) or donkey-anti-rabbit IgG POD (GE #NA9340V, 1:5000 in OSE) was added and incubated at RT for 1 h on shaker. For detection of rat IgGs a mixture of goat-anti-rat IgG1-POD (Bethyl #A110-106P), goat-anti-rat IgG2a-POD (Bethyl #A110-109P) and goat-anti-rat IgG2b-POD (Bethyl #A110-111P) 1:10000 in OSEP was added and incubated at RT for 1 h on shaker. After washing (6×90 μl/well with PBST-buffer) 25 μl/well TMB substrate (Roche, 11835033001) was added and incubated until OD 2-3. Measurement took place on a Tecan Safire 2 instrument at 370/492 nm.
(§3) The above table summarizes the binding of different rat anti-human HLA-G monoclonal antibodies, derived from wt protein IMS both of wt as well as OMT rats. Shown are the relative EC50 values [ng/ml] and maximal OD of the respective binding to rec. wt monomeric HLA-G protein or the socalled gegrafted HLA-G (HLA-A consensus sequence on HLA-G backbone) protein as assessed by ELISA. The ELISA was set up by coating the biotinylated wt HLA-G or consensus antigen to strepdavidin plates. After incubation and washing steps, the respective antibodies were bound in a concentration range from 10-0 μg in 1:2 dilution steps. Detection of bound antibodies was carried out by anti-Fc-antibody-POD conjugates. EC50 values were determined from the resulting binding curves at the antibody concentrations generating the half-maximal signal.

[5] = target: T2, recombinant soluble human HLA-G β2M MHC …; test: ELISA, HLA-G trimer coated at random on plate
Procedure: as §3, with “IMS.” for “IMS both of wt as well as OMT rats.”, “[ng/ml]” for “[ng/ml] and maximal OD”, “monomeric, dimeric and trimeric” for “monomeric”, “proteins” for “protein or the socalled gegrafted HLA-G (HLA-A consensus sequence on HLA-G backbone) protein”, “HLA-G” for “HLA-G or consensus”, “signal. In case of the non-biotinylated HLA-G dimer and trimer antigens, immobilization was carried out by random coating on assay plates.” for “signal.”

[6] = target: T4, human HLA-G expressed on cells (JEG3 natural; SKOV3 HLA-G+ and PA-TU-8902 HLA-G+ transfectants) (human); test: flow cytometry, JEG3 cells pre-incubated with antibody (40 µg/ml final); competitor ILT2-Fc chimera
T4 construct: On cells HLA-G stands in an MHC class I complex with beta-2 microglobulin and peptide; these are not specified; also called cell surface HLA-G; HLAG on JEG-3 cells
Procedure: For analysis, JEG3 cells (ATCC HTB36) were stained with ILT2-Fc fusion proteins (control=no inhibition) with or without pre-incubation with different anti-HLA-G antibodies. For the pre-incubation with anti-HLA-G antibodies 25 μl/well of the cell suspension was transferred into a polypropylene 96-Well V-bottom plate and prechilled in the at 4° C. for 10 min. Anti HLA-G antibodies or reference antibodies (G233, MEM-G/9 or 87G) were diluted in staining buffer to a 2-fold concentration of 80 μg/ml and 25 μl/well of the antibody solution was added to the prepared cells and incubated for 1 h at 5° C. Cells were washed twice with 200 μl/well staining buffer with centrifugation at 300 g for 3 min and finally resuspended in 25 μl/well staining buffer.
The detection of human ILT2-Fc Chimera protein (RD #2017-T2-050) to a) JEG3 cells pre-incubated anti HLA-G mAb or b) untreated JEG3 cells as reference was determined as follows: Briefly, the ILT2-Fc or control human IgG (Jackson-Immuno-Research #009-000-003) were diluted in staining buffer to a 2-fold concentration of 20 μg/ml (ILT2) and 25 μl/well of the ILT2-Fc protein solution was added to the prepared cells and incubated for 2 h at 5° C. Cells were again washed twice with 200 μl/well staining buffer the human ILT2-Fcprotein was detected with fluorescent labeled anti human IgG Fc-gamma specific antibody (F(ab′)₂ Fragment Goat Anti-Human IgG, Fcγ fragment specific-FITC, Jackson-Immuno-Research #109-096-008) at a dilution of 10 μg/ml in staining buffer. Cell pellets were resuspended in 50 μl/well detection antibody. After a 1-hour incubation at 5° C. cells were washed twice with staining buffer, resuspended in 70 μl and measured at a FACS Canto II to determine ILT2 binding to JEG 3 cells.

B1: HLA-G-0031 (antibody, V domains shown)
VH: QVKLMQSGAALVKPGTSVKMSCNASGYTFTDYWVSWVKQSHGKRLEWVGEISPNSGASNFDENFKDKATLTVDKSTSTAYMELSRLTSEDSAIYYCTRSSHGSFRWFAYWGQGTLVTVSS
VL: AIVLNQSPSSIVASQGEKVTITCRASSSVSSNHLHWYQQKPGAFPKFVIYSTSQRASGIPSRFSGSGSGTSYSFTISRVEAEDVATYYCQQGSSNPYTFGAGTKLELK
notes: Rat monoclonal antibody obtained from CD rats
[1]
  % inhibition of ILT4 binding: 54%
[2]
  % inhibition of ILT4 binding: 68%
[3]
  % inhibition of ILT4 binding: 17%
[4]
  Max. OD: 1.6 OD
[5]
  EC50: 1.86 nM
[6]
  Inhibition of ILT2 binding to Jeg3 cells: 95.1%

B2: HLA-G-0039 (antibody, V domains shown)
VH: EVQLLESGGGLVQPGGSLRLSCAASGFTFSSYAMNWVRQAPGKGLEWVSVISGSGVSTYYADSVKGRFTISRDNSRNTLSLQMNSLRAEDTAVYYCAKDGSYNYGYGDYFDYWGQGTLVTVSS
VL: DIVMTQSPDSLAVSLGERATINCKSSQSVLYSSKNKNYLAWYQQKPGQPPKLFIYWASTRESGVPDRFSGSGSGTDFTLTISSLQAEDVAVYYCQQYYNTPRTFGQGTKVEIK
notes: Human antibody from humanized OmniRat (OMT) rats
[1]
  % inhibition of ILT4 binding: -105%
[2]
  % inhibition of ILT4 binding: -43%
[3]
  % inhibition of ILT4 binding: -224%
[4]
  Max. OD: 1.4 OD
[5]
  EC50: 5.29 nM
[6]
  Inhibition of ILT2 binding to Jeg3 cells: -72.9%

B3: HLA-G-0041 (antibody, V domains shown)
VH: B2 VH with S31T, A33G, N35S, S54G, R76K, S80Y, S85R
VL: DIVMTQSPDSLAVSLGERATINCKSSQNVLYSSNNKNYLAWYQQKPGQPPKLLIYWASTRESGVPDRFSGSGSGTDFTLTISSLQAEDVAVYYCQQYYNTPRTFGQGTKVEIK
notes: as for B2
[1]
  % inhibition of ILT4 binding: -113%
[2]
  % inhibition of ILT4 binding: -39%
[3]
  % inhibition of ILT4 binding: -184%
[4]
  Max. OD: 2.3 OD
[5]
  EC50: 4.87 nM
[6]
  Inhibition of ILT2 binding to Jeg3 cells: -76.7%

B4: HLA-G-0090 (antibody, V domains shown)
VH: QVQLQQSGPGLLKPSQTLSLTCAISGDSVSSNRAAWNWIRQSPSRGLEWLGRTYYRSKWYNDYAVSVQGRITLIPDTSKNQFSLRLNSVTPEDTAVYYCASVRAVAPFDYWGQGVLVTVSS
VL: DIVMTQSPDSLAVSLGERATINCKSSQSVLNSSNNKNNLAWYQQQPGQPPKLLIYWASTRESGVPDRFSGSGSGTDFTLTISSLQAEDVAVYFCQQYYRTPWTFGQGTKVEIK
notes: as for B2
[4]
  Max. OD: 3.4 OD
[6]
  Inhibition of ILT2 binding to Jeg3 cells: 91.8%
